In patent publication US11402384B2 (Duke University, priority 2015, dated 2022):
Positions count from the first letter of the chain named. In names and notes the source's numbering stands. Read-outs that look alike come from different tables or passages of the source.

B1: G41C Badan: tsGBP2_C41 (SEQ ID NO: 21) Badan conjugate (conjugate)
chain: MKLEIFSWWAGDEGPALEALIRLYKQKYPGVEVINATVTGCAGVNAKAVLKTRMLGGDPPDTFQVHAGQELIGTWVVADRMEDLTSLFRQEGWLQAFPKGLIDLLSYKGGIWSVPVNIHRSNVMWYIPAKLKEWGVTPPKTWAEFLATAQTLKRKGLEAPLALGENWTQQHLWESVALATLGADGWNNLWSGKLKFTDPKAVAVWETFGKVLDAANKDAAGLSWQQAVDRVVQGKAAFNIMGDWAAGYMSTTLKLKPGTDFAWTPSPGTSGIFMMLSDSFGLPKGAKNRQNAINWLKLVGSKEGQDTFNPLKGSIAARLDSDPAKYNAYGQSAMKDWKSNRIVGSLVHGAVAPESFMSQFGTVMEIFLQSRNPQAAANAAQAIANQVGLGRGGSHHHHHH
modifications: Badan conjugate; tsGBP2_C41 (41C substitution mutant with signal peptide replaced with M and a GGSHHHHHH at C-terminus)
B2: Q225C Acrylodan: tsGBP2_C225 (SEQ ID NO: 29) Acrylodan conjugate (conjugate)
chain: B1 chain with C41G, Q225C
modifications: Acrylodan conjugate; tsGBP2_C225 (225C substitution mutant with signal peptide replaced with M and a GGSHHHHHH at C-terminus)
B3: H119C Badan: tsGBP2_C119 (SEQ ID NO: 25) Badan conjugate (conjugate)
chain: B1 chain with C41G, H119C
modifications: Badan conjugate; tsGBP2_C119 (119C substitution mutant with signal peptide replaced with M and a GGSHHHHHH at C-terminus)
B4: S223C Badan: tsGBP2_C223 (SEQ ID NO: 27) Badan conjugate (conjugate)
chain: B1 chain with C41G, S223C
modifications: Badan conjugate; tsGBP2_C223 (223C substitution mutant with signal peptide replaced with M and a GGSHHHHHH at C-terminus)
B5: Q64C Badan: tsGBP2_C64 (SEQ ID NO: 23) Badan conjugate (conjugate)
chain: B1 chain with C41G, Q64C
modifications: Badan conjugate; tsGBP2_C64 (64C substitution mutant with signal peptide replaced with M and a GGSHHHHHH at C-terminus)
B6: W167C Badan: tsGBP2_C167 (SEQ ID NO: 26) Badan conjugate (conjugate)
chain: B1 chain with C41G, W167C
modifications: Badan conjugate; tsGBP2_C167 (167C substitution mutant with signal peptide replaced with M and a GGSHHHHHH at C-terminus)
B7: Q64C Acrylodan: tsGBP2_C64 (SEQ ID NO: 23) Acrylodan conjugate (conjugate)
chain: B1 chain with C41G, Q64C
modifications: Acrylodan conjugate; tsGBP2_C64 (64C substitution mutant with signal peptide replaced with M and a GGSHHHHHH at C-terminus)
B8: W224C Acrylodan: tsGBP2_C224 (SEQ ID NO: 28) Acrylodan conjugate (conjugate)
chain: B1 chain with C41G, W224C
modifications: Acrylodan conjugate; tsGBP2_C224 (224C substitution mutant with signal peptide replaced with M and a GGSHHHHHH at C-terminus)
B9: H66C Badan: tsGBP2_C66 (SEQ ID NO: 24) Badan conjugate (conjugate)
chain: B1 chain with C41G, H66C
modifications: Badan conjugate; tsGBP2_C66 (66C substitution mutant with signal peptide replaced with M and a GGSHHHHHH at C-terminus)
B10: H66C Acrylodan: tsGBP2_C66 (SEQ ID NO: 24) Acrylodan conjugate (conjugate)
chain: B1 chain with C41G, H66C
modifications: Acrylodan conjugate; tsGBP2_C66 (66C substitution mutant with signal peptide replaced with M and a GGSHHHHHH at C-terminus)
B11: A42C Badan: tsGBP2_C42 (SEQ ID NO: 22) Badan conjugate (conjugate)
chain: B1 chain with C41G, A42C
modifications: Badan conjugate; tsGBP2_C42 (42C substitution mutant with signal peptide replaced with M and a GGSHHHHHH at C-terminus)
B12: S223C Acrylodan: tsGBP2_C223 (SEQ ID NO: 27) Acrylodan conjugate (conjugate)
chain: B1 chain with C41G, S223C
modifications: Acrylodan conjugate; tsGBP2_C223 (223C substitution mutant with signal peptide replaced with M and a GGSHHHHHH at C-terminus)
B13: W167C Acrylodan: tsGBP2_C167 (SEQ ID NO: 26) Acrylodan conjugate (conjugate)
chain: B1 chain with C41G, W167C
modifications: Acrylodan conjugate; tsGBP2_C167 (167C substitution mutant with signal peptide replaced with M and a GGSHHHHHH at C-terminus)
B14: A42C Acrylodan: tsGBP2_C42 (SEQ ID NO: 22) Acrylodan conjugate (conjugate)
chain: B1 chain with C41G, A42C
modifications: Acrylodan conjugate; tsGBP2_C42 (42C substitution mutant with signal peptide replaced with M and a GGSHHHHHH at C-terminus)
B15: H119C Acrylodan: tsGBP2_C119 (SEQ ID NO: 25) Acrylodan conjugate (conjugate)
chain: B1 chain with C41G, H119C
modifications: Acrylodan conjugate; tsGBP2_C119 (119C substitution mutant with signal peptide replaced with M and a GGSHHHHHH at C-terminus)
B16: Q225C Badan: tsGBP2_C225 (SEQ ID NO: 29) Badan conjugate (conjugate)
chain: B1 chain with C41G, Q225C
modifications: Badan conjugate; tsGBP2_C225 (225C substitution mutant with signal peptide replaced with M and a GGSHHHHHH at C-terminus)
B17: W224C Badan: tsGBP2_C224 (SEQ ID NO: 28) Badan conjugate (conjugate)
chain: B1 chain with C41G, W224C
modifications: Badan conjugate; tsGBP2_C224 (224C substitution mutant with signal peptide replaced with M and a GGSHHHHHH at C-terminus)

Test: Ratiometric fluorescence glucose titration of fluorescent conjugates
Assay type: binding
Parameters: key to Shape (fluorescence response to glucose) / Change (fluorescence response to glucose): m, monochromatic; d, dichromatic (i.e. spectral shape change); 0, no change
Conditions: tsGBP2 cysteine scan; for Kd: ratiometric fit at λ1 and λ2
From the text: Semi-synthetic FRSs can be engineered by site-specifically attaching thiol-reactive, environmentally sensitive fluorophores that respond to ligand-mediated conformational changes. Identification of FRS candidates that can be used for sensing applications comprises three steps: • 1. Cysteine scan. Mutant glucose-binding proteins containing single cysteines are constructed for site-specific attachment of thiol-reactive fluorophores. […] Candidate positions fall into three classes: endosteric, replacing a residue that contacts the ligand directly; peristeric, located at the rim of the binding site; allosteric (Marvin et al., 1997, Proc Natl Acad Sci USA, 94, 4366-71; Marvin, 1998, J Am Chem Soc, 120, 7-11), located outside the binding site at sites that undergo local structural changes in concert with the hinge-bending motion. • 2. Fluorophore screening. Thiol-reactive, environmentally sensitive fluorophores are attached to each cysteine mutant prepared in step 1. • 3. Evaluation of the glucose-mediated change of all the fluorescent conjugates prepared in step 2. Responses to ligand binding in which there is both a change in fluorescence emission intensity and spectral shape are essential for chemometric applications, because such changes enable ratiometric measurements. Changes in spectral shape typically are accompanied by a shift in the wavelength of the emission intensity maxima. Three classes of fluorescent responses are possible: • i. No response. • ii. Monochromatic response (emission intensity increases or decreases without a change in spectral shape) • iii.
Determination of temperature- and ligand-dependent fluorescence landscapes. […] Temperatures were advanced in 1K steps.
Determination of emission intensity spectra.
2 For a single glucose-binding site, the fractional saturation is given by […]

[1] = Acrylodan conjugate, read-out: Kd ^appKd
[2] = Acrylodan conjugate, read-out: Kd ^trueKd

| Molecule | Shape (fluorescence response to glucose) (Badan conjugate) | Shape (fluorescence response to glucose) (Acrylodan conjugate) | further results |
| --- | --- | --- | --- |
| B1 | m |  |  |
| B2 |  | m |  |
| B3 | m |  |  |
| B4 | m |  |  |
| B5 | m |  |  |
| B6 | m |  |  |
| B7 |  | 0 |  |
| B8 |  | m | Kd [1]: 700 µM; Kd [2]: 900 µM |
| B9 | m |  |  |
| B10 |  | d |  |
| B11 | m |  |  |
| B12 |  | 0 |  |
| B13 |  | d | Kd [1]: 20 µM; Kd [2]: 20 µM |
| B14 |  | 0 |  |
| B15 |  | m | Kd [1]: 20 µM; Kd [2]: 20 µM |
| B16 | m |  |  |
| B17 | 0 |  |  |
